Publication PMC3295773

Tests used:
[1] = molecular target: complexin 2 (pig (endogenous in boar sperm)); assay: SDS-resistant complexes on SDS-PAGE, Western blot (bands of the same size); whole sperm lysate, remaining head fraction and mixed vesicles of boar sperm treated with bicarbonate and 5 uM Ca2+ ionophore A23187; 35 ug crude protein a lane; non-reducing (RT, no reducing agent) or reducing (100 C, 10 min, 0.1 M DTT) conditions
[2] = molecular target: complexin 2 (pig (endogenous in boar sperm)); assay: SDS-resistant complexes on SDS-PAGE, Western blot (bands of the same size); membrane cavitates of bicarbonate-capacitated boar sperm pre-incubated with 0-4 mM CaCl2 and 5 uM Ca2+ ionophore at 37 C for 20 min; non-reducing conditions; blot for complexin 1/2; most complexin left the 95 kDa complex as Ca2+ rose
[3] = molecular target: complexin 2 (pig (endogenous in boar sperm)); assay: SDS-resistant complexes on SDS-PAGE, Western blot (bands of the same size); boar sperm incubated with bicarbonate (with or without Ca2+ ionophore), lysed in 1% Triton X-100 on ice, sucrose gradient fractions 1-13; non-reducing SDS-PAGE; blots for complexin 1/2, syntaxin 3, SNAP 23, VAMP 2, syntaxin 1B, VAMP 3

Measured: stoichiometry N

complexin 2 (natural protein)
2: all assays above
